Measured values taken from US20210380977, “MYOCARDIAL ENHANCER RNA AND METHODS OF USE” (THE TRUSTEES OF INDIANA UNIVERSITY, published 2021).
Residue numbers refer to the chain shown, from its start.

T1: CTCF (UniProt P49711 P49711:1-727)
T1 sequence: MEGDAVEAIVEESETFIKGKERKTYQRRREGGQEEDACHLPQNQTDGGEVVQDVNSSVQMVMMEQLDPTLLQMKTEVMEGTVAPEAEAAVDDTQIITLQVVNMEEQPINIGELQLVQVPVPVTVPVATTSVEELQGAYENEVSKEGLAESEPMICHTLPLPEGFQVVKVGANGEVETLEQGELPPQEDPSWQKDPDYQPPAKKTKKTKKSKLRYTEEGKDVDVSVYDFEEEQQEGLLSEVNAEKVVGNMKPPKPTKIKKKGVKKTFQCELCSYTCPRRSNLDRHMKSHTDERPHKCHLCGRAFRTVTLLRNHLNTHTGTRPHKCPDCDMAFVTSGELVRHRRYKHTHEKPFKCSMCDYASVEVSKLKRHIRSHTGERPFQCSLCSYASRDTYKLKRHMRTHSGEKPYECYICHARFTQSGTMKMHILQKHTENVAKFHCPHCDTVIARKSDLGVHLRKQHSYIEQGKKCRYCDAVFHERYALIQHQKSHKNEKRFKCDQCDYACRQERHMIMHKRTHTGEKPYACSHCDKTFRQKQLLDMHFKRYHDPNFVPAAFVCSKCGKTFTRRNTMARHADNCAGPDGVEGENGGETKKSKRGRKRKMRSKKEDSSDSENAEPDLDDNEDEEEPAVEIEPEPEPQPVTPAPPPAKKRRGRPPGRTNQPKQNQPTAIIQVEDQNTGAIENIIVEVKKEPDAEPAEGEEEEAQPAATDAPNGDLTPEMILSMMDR

B1: eDNA CTCF site dsDNA probe (dsDNA)
DNA 1: GGTCAGCCACACAACAGAGGGGGTGGCACAGCTCTTGGGA
DNA 2: TCCCAAGAGCTGTGCCACCCCCTCTGTTGTGTGGCTGACC
B2: mutant CTCF site dsDNA probe (dsDNA)
DNA 1: B1 DNA 1 with G19A, G20A, G21A, G22A, G23A
DNA 2: B1 DNA 2 with C18T, C19T, C20T, C21T, C22T

What was measured:
[1] = molecular target: T1, CTCF; assay: EMSA; 200 ng CTCF, 10 mM HEPES pH 7.3, 10 mM NaCl, 1 mM MgCl2, 5 ug tRNA, RT; settings: tags: Abnova H00010664-P01; label: 5' biotin on the reverse complementary strand
Procedure: (§1) All these biotin-labelled probes were incubated with 200 ng CTCF recombinant proteins (H00010664-P01, Abnova) in 20 μl 1× binding buffer (10 mM HEPES-KOH, pH 7.3, 10 mM NaCl, 1 mM MgCl₂, 1 mM DTT) with 5 μg tRNA carrier at room temperature for 30 min. The reactions were then loaded onto 6% Novex TBE gels (EC6265BOX, Thermo Fisher Scientific) and transferred to Bright Star-Plus positive charged membrane (AM10110, Thermo Fisher Scientific). Biotin-labeled probes were detected by Chemiluminescent Nucleic Acid Detection Module (89880, Thermo Fisher Scientific) using Odyssey Imaging System (LI-COR).
(§2) We next asked whether Brg1 or its associated factor could bind to Uhrt-eDNA hybrid. We first investigated the role in eDNA looping of CCCTC-binding factor (CTCF), a regulator protein essential for chromatin looping and three-dimensional structure formation. CTCF contains 11 highly conserved zinc finger domains, capable of binding to specific double-stranded DNA sequence to cause chromatin looping. We found a CTCF consensus binding motif (AGGGGGTGG; SEQ ID NO: 43) on eDNA near the conserved MEF2A and GATA4 sites. ChIP analysis of heart tissues verified CTCF was enriched on eDNA region in E13.5 hearts, whereas its occupancy on eDNA dropped by 42% in normal adult hearts, but was increased by 81% and restored to fetal levels by TAC, while CTCF protein levels remained unchanged. […]

[2] = molecular target: T1, CTCF; assay: EMSA; mutation disrupted CTCF binding; settings: tags: Abnova H00010664-P01; label: 5' biotin
Procedure: as §1, §2

Row | Binder | binding result [1] | binding result [2]
1 | B1 | binds | –
2 | B2 | – | no binding
